First the molecules themselves.
B1: 3A3 (antibody, human IgG1, kappa, L234A L235A, V domains shown)
VH: QVQLVQSGPEVKKPGAPVKISCKTSGYIFDDYGITWVRQAPGQGLEWLGWISTYNGKTSFAQKVQGRLTMTTDISTNTASMELRGLRSDDTALYYCARVFSRYIPFYFDSWGQGTLVTVSS
VL: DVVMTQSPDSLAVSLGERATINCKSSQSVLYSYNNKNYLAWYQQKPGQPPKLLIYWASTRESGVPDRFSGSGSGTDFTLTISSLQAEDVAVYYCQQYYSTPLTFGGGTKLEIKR
notes: Full IgG made in CHO cells: variable regions joined to the IgG heavy chain constant region and the kappa constant region; also called TEM8-3A3
B2: 6A6Q (antibody, human IgG1, lambda, L234A L235A, V domains shown)
VH: EVQLVESGGGVVQPGGSLRLSCAASGFTFDDYAMHWVRQAPGKGLEWVSLISGDGGSTYYADSVKGRFTISRDNSKNSLYLQMNSLKASDTAMYYCARPRWGRYSSSWPFDYWGQGTLVTVSS
VL: QSALTQPASVSGSPGQSITISCTGTSSDVGTYNYVSWYQQHPGKAPKLMIYDVTDRPSGISNRFSGSKSGNTASLTISGLQAEDEGNYYCSSYTSQRSWVFGGGTKLTVLG
notes: Full IgG made in CHO cells, lambda constant region; Variant of 6A6 whose light chain glycosylation site NRS was mutated to QRS; also called TEM8-6A6Q
B3: 3B3 (antibody, human IgG1, kappa, L234A L235A, V domains shown)
VH: EVQLVQSGGGLVKPGGSLRLSCAASGFTFSSYSMNWVRQAPGKGLEWVSSISSSSSYIYYADSVKGRFTISRDNAKNSLYLQMNSLRAEDTAVYYCARVRPPYGMDVWGQGTLVTVSS
VL: NIQMTQSPSSVSASVGDTVTISCRASQGISNWLGWYQQRPGEAPKLLIYAASHLQSGVPSRFSGSGSGTDFVLTITSLQPEDFATYYCQQSNSFPLAFGGGTKLEIKR
notes: Full IgG made in CHO cells, kappa constant region; also called TEM8-3B3
B4: 11B7 (antibody, human IgG1, lambda, L234A L235A, V domains shown)
VH: QVQLVQSGGGVVQPGRPLRLSCAASGFNLGSYAMSWVRQAPGKGLEWVSAISGSGGSTYYADSVKGRFTISRDNSKNTLYLQMNSLRAEDTAVYYCAKILGPGNLNYYYYYGMDVWGQGTTVTVSS
VL: SSELTQDPAVSVALGQTVRITCQGDSLRNSYASWYQQKPGQAPVLVIYGNNNRPSGIPDRVSGSRSGNTASLTITGAQAEDEADYYCNSRDSSGNHVVFGGGTELTVLG
notes: Full IgG made in CHO cells, lambda constant region; also called TEM8-11B7
B5: 7E3 (antibody, human IgG1, lambda, L234A L235A, V domains shown)
VH: QVQLVESGGGLVNPGGSLRLSCAVSGFTSSGFSINWVRQAPGKGLEWVSSISGIGDSIFYADSVKGRFTISRDNAKNLVFLQMNSVKAEDTAVYYCVRDKWGWGTYSLFDYWGQGTLVTVSS
VL: QAVLTQPPSASGTPGQRVTISCSGSSSNIASNVVSWYQQLPGTAPKVLIYSNNRRPSGVPDRFSGSKSGASASLAISGLQSDDETHYYCAAWDDSLKGPVFGGGTQLTVLG
notes: Full IgG made in CHO cells, lambda constant region; also called TEM8-7E3

For five molecules, EC50 results are on record in patent EP4722246A1 (Inxmed (Nanjing) Co., Ltd., dated 2024).

One assay deals with human TEM8 on CHO-hTEM8 cells (human, UniProt Q9H6X2 33-564). Kind of assay: FACS on CHO-hTEM8 cells.
human TEM8 on CHO-hTEM8 cells, sequence (Q9H6X2 33-564): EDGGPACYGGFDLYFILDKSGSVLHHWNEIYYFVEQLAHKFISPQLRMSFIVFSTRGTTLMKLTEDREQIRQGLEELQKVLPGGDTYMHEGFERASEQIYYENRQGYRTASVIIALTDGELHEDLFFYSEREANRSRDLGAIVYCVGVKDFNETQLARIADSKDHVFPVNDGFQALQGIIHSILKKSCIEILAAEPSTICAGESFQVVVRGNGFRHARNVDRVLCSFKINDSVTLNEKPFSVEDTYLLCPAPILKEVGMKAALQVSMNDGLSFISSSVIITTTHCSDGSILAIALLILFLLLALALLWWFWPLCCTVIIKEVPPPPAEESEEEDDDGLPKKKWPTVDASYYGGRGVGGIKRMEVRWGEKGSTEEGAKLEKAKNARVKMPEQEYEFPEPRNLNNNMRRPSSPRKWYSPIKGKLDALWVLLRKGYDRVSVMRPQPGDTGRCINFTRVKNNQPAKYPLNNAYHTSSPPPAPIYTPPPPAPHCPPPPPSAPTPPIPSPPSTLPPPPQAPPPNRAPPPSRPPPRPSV
B1 registered an EC50 of 0.71 nM.
In the case of B2, the 50% effective concentration (EC50) worked out at 0.63 nM.
Same read-out and setting: for B3 the value was 1.51 nM; for B4, 0.85 nM; for B5, 0.75 nM.

The target in another assay is T1, mouse TEM8 on CHO-mTEM8 cells (mouse, UniProt Q9CZ52 31-562).
T1 construct: also called murine TEM8
T1 sequence (Q9CZ52 31-562): as the sequence (Q9H6X2 33-564) above, with K40R, R104S, S241A, I297V, A327V, N458S, A468T, T471P, P493A counted along it
Briefly: FACS on CHO-mTEM8 cells.
The molecule B1 gave an EC50 of 1.48 nM.
In turn, B2 showed an EC50 of 1.16 nM.
With B3, the EC50 was 2.14 nM. Compared with the last molecule, the EC50 is about 1.8-fold higher.
The same measure, in the same setting: for B4 the value was 1.21 nM; for B5, 1.41 nM.
